# Experimental data: patent US10513545B2, “Fusion polypeptide in which anti-inflammatory polypeptide and ferritin monomer fragment are bound and pharmaceutical composition for preventing and treating inflammatory diseases, containing same as active ingredient” (KYUNGPOOK NATIONAL UNIVERSITY INDUSTRY-ACADEMIC COOPERATION …, priority 2015, dated 2019)
# Tests used:
# [1] = tested on: VCAM-1, ICAM-1 and E-selectin on HUVECs; experiment: expression of cell adhesion molecules (CAMs), whole-cell ELISA; assay type: cell-based, human; details: LPS 100 ng/mL, FIG. 21A
# Method: The expression of vascular cell adhesion molecule-1 (VCAM-1), intercellular adhesion molecule-1 (ICAM-1), and E-selectin on HUVECs were determined by a whole-cell ELISA as described. Briefly, confluent monolayers of HUVECs were treated with PC-Gla with TRAP, TFG, or TFMG for 6 h followed by LPS (100 ng/mL) for 16 h (VCAM-1 and ICAM-1) or 24 h (E-Selectin). After washing, mouse anti-human monoclonal VCAM-1 (100 μM; clone; 6C7.1), ICAM-1 (clone; P2A4) and E-selectin (clone; P3H3) antibodies (Millipore Corporation, 1:50 each) were added. After 1 h (37° C., 5% CO2), the cells were washed three times and then 1:2000 peroxidase-conjugated anti-mouse IgG antibody (100 μl; Sigma) was added for 1 h. The cells were washed again three times and developed using the o-phenylenediamine substrate (Sigma). Colorimetric analysis was performed by measuring absorbance at 490 nm. All measurements were performed in triplicate wells.
# [2] = tested on: CLP-induced sepsis; experiment: survival in animal model of CLP-induced sepsis; assay type: in vivo, mouse; details: for survival rate: in comparison with PC-Gla and TRAP co-administration group, FIG. 14; for overall effectiveness in sepsis treatment: taken together, in comparison with PC-Gla and TRAP co-administered group
# Method: Male C57BL/6 mice (6-7 weeks of age, 18-20 g) were purchased from Orient Biotech (Seongnam, Gyeonggi Province, Republic of Korea) and used after 12 days of acclimation. Five mice per cage were housed under the conditions of a controlled temperature (20-25° C.), humidity (40-45%), and 12:12 h day/night cycle, while being fed with a normal rodent pellet and water ad libitum. All animals were treated according to the Guidelines for the Care and Use of Laboratory Animals issued by Kyungpook National University.
# (§1) To induce inflammation, male mice were anesthetized with 2% isoflurane (JW Pharmaceutical, Republic of Korea) in oxygen delivered via a small rodent gas anesthesia machine (RC2, Vetequip, Pleasanton, Calif.), first in a breathing chamber and then via a facemask. They were allowed to breathe spontaneously during this procedure. The CLP-induced inflammation model was prepared as previously described. In brief, a 2-cm midline incision was made to expose the cecum and adjoining intestine. The cecum was then tightly ligated with a 3.0-silk suture at 5.0 mm from the cecal tip and punctured once using a 22-gauge needle for the induction of high grade inflammation. It was then squeezed gently to extrude a small amount of feces from the perforation site and returned to the peritoneal cavity. The laparotomy site was then sutured with 4.0-silk. In sham control animals, the cecum was exposed but not ligated or punctured and then returned to the abdominal cavity. This protocol was approved by the Animal Care Committee at Kyungpook National University prior to the conduct of the study (IRP No, KNU 2012-13).
# All experiments were performed independently at least three times. Values are expressed as means±SEM. The statistical significance of differences between test groups was evaluated using SPSS for Windows, version 16.0 (SPSS, Chicago, Ill.). Statistical relevance was determined by one-way analysis of variance (ANOVA) and Tukey's post-test. P values less than 0.05 were considered to indicate a statistical significance. Survival analysis of CLP-induced sepsis was performed using Kaplan-Meier analysis.
# [3] = tested on: PAR-1; experiment: PAR-1 cleavage assay in transfected HUVECs (ALP activity); assay type: cell-based; details: FIG. 13
# Method: HUVECs at 90% confluence in 24-well plates were transiently transfected with pRc/RSV containing ALP-PAR-1-TF cDNA in antibiotic-free Opti-MEM medium using Lipofectamine (Invitrogen) according to the manufacturer's instruction. On the following day, cells were washed and incubated in serum-free medium for 5 h. Cells were then incubated for an additional hour with thrombin, TRAP, TFG, or TFMG. Conditioned medium was collected and centrifuged to remove cellular debris. Supernatant was collected, and ALP (alkaline phosphatase) activity was measured using EnzoLyte™ p-nitrophenyl phosphate alkaline phosphatase assay kit (AnaSpec, San Jose, Calif.) according to the manufacturer's instructions.
# [4] = tested on: IL-6, IL-10, TNF-α; experiment: blood inflammatory cytokines (ELISA) in CLP-induced sepsis; assay type: in vivo, mouse; details: for level of IL-6 / level of IL-10: FIG. 18A; for level of TNF-α: FIG. 18B
# Method: as §1
# Fresh serum was used for assaying aspartate transaminase (AST), alanine transaminase (ALT), blood urea nitrogen (BUN), creatinine, and LDH using biochemical kits (Mybiosource). To determine the concentrations of IL-6, IL-10, and TNF-α, commercially available ELISA kits were used according to the manufacturer's protocol (R&D Systems). Values were measured using an ELISA plate reader (Tecan, Austria GmbH, Austria).
# [5] = tested on: HUVECs; experiment: HUVEC cell-binding assay with fluorescence-labeled molecules (in vitro); assay type: cell-based, human; details: for degree of binding to HUVECs: FIG. 10, compared with PC-Gla; for in vitro binding to endothelial cells compared with PC-Gla: HUVEC, FIG. 12A
# Method: PC-Gla, TFG, and TFMG were labeled with FNG-456 NHS ester for in vitro assays or FNI-675 NHS ester for in vivo assays at a molar ratio of 1:3. Briefly, each molecule (10 μM) was dissolved in PBS (1.5 mL), and FNG-456 NHS ester (30 μM) or FNI-675 NHS ester (30 μM) was dissolved in DMSO (0.2 mL). Each molecule and fluorescent dye was reacted at room temperature for 3 h. The reaction product was passed through a 0.2-μm filtering unit, and the unreacted dye was separated on a PD midiTrap™ G-25 (GE Healthcare, UK) that had been pre-equilibrated in PBS with 2 mM sodium azide. This process yielded more than 2.17 μM of each nanoparticle with more than 1.5 ratio of dye per protein.
# A direct cell-binding assay was performed on HUVECs and in vivo using fluorescence labeled-PC-Gla, TFG, and TFMG. The assay was performed with PC-Gla, TFG, or TFMG treated on HUVECs, intravenously injected mice, and isolated mouse endothelial cells. The fluorescence value of the HUVECs or endothelial cells were measured with tightly bound PC-Gla, TFG, and TFMG, respectively. The concentrations of PC-Gla, TFG, and TFMG were measured by using the nanoparticle ratio of fluorescent dye per protein.
Molecule,LPS-mediated upregulation of CAMs [1],survival rate [2],overall effectiveness in sepsis treatment [2],PAR-1 cleavage activity (ability to activate PAR-1) [3],level of IL-6 [4],level of IL-10 [4],level of TNF-α [4],degree of binding to HUVECs [5],in vitro binding to endothelial cells compared with PC-Gla [5]
"TFMG: as TFG with an MMP-2 cleavable linker (GPLGLAG) between ferritin fragment C-terminus and PC-Gla (apparently SEQ ID NO: 15) (protein, Fusion polypeptide (2)) MGGTTFLLRNASGHMSSQIRQNYSTDVEAAVNSLVNLYLQASYTYLSLGFYFDRDDVALEGVSHFFRELAEEKREGYERLLKMQNQRGGRIFLQDIKKPAEDEWGKTPDAMKAAMALEKKLNQALLDLHALGSARTDPHLCDFLETHFLDEEVKLIKKMGDHLTNLHRLGGGSEFVDGGGSGTSGPLGLAGANSFLEELRHSSLERECIEEICDFEEAKEIFQNVDDTLAFWSKHVLEHHHHHH",inhibited,significantly improved,more effective antiseptic than TFG,strong similarities,mitigated,mitigated,mitigated,strong binding affinities which are equivalent to that of PC-Gla,"bound more strongly to, and stayed longer on, endothelial cells than PC-Gla did"
"TFG: fusion polypeptide: TRAP at N-terminus and PC-Gla at C-terminus of short ferritin monomer fragment, forms nanocage (apparently SEQ ID NO: 14) (protein, Fusion polypeptide (1)) MGGTTFLLRNASGHMSSQIRQNYSTDVEAAVNSLVNLYLQASYTYLSLGFYFDRDDVALEGVSHFFRELAEEKREGYERLLKMQNQRGGRIFLQDIKKPAEDEWGKTPDAMKAAMALEKKLNQALLDLHALGSARTDPHLCDFLETHFLDEEVKLIKKMGDHLTNLHRLGGGSEFVDGGGSGTSANSFLEELRHSSLERECIEEICDFEEAKEIFQNVDDTLAFWSKHVLEHHHHHH",inhibited,significantly improved,significantly effective,strong similarities,mitigated,mitigated,mitigated,strong binding affinities which are equivalent to that of PC-Gla,"bound more strongly to, and stayed longer on, endothelial cells than PC-Gla did"
